The values below come from publication PMC3267196.

One series deals with Glu36 (UniProt position 36, GVPQYEYLVAM). In words: IR (low-temperature light-induced difference FTIR). As to conditions: 170 K, 2 mM sodium phosphate (pH 7.0) for washing liposomes.
A further series has as its target Asp217 (UniProt position 217, GFSFLDLHGLR). The series is described as follows: IR (time-resolved FTIR, quoted from ref 74). As to conditions: Unphotolysed ASR; the protonation state of Asp217 is inferred from whether it accepts a proton on M formation; cited from earlier work.

With “Anabaena sensory rhodopsin (ASR) (Anabaena (Nostoc) sp. PCC 7120)”, the pKa result in the series with Glu36 (buffers for pH 5 and 9 not stated, Dark-adapted ASR (97% all-trans retinal), unphotolysed state versus L intermediate formed by >580 nm illumination) was “between 6 and 7”; in the series with Glu36 (not stated for pH 5 and 9, Dark-adapted ASR (predominantly all-trans), unphotolysed state bands in the L minus ASR difference spectrum) it was “about 7”.

Consider “Anabaena sensory rhodopsin (ASR), as studied by Shi et al. 2006 (Anabaena (Nostoc) sp. PCC 7120)”, for which the pKa entry with Asp217 is “between 6 and 7”.
